Measured values from paper PMC2956685, “The 14-3-3ζ Protein Binds to the Cell Adhesion Molecule L1, Promotes L1 Phosphorylation by CKII and Influences L1-Dependent Neurite Outgrowth” (PLoS ONE, 2010).

Molecular target: His-L1ICD, non-phosphorylated (intracellular domain of L1) (mouse, UniProt P11627 1144-1260)
Assay: cell-based or functional assay

Chain of His-L1ICD, non-phosphorylated (intracellular domain of L1) (P11627 1144-1260): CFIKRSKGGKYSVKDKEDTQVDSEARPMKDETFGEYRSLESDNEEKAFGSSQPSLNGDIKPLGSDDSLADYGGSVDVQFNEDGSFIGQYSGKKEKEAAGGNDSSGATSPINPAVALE

B1: GST-14-3-3ζ (natural protein, UniProt P63104 1-245, looked up)
chain: MDKNELVQKAKLAEQAERYDDMAACMKSVTEQGAELSNEERNLLSVAYKNVVGARRSSWRVVSSIEQKTEGAEKKQQMAREYREKIETELRDICNDVLSLLEKFLIPNASQAESKVFYLKMKGDYYRYLAEVAAGDDKKGIVDQSQQAYQEAFEISKKEMQPTHPIRLGLALNFSVFYYEILNSPEKACSLAKTAFDEAIAELDTLSEESYKDSTLIMQLLRDNLTLWTSDTQGDEAEAGEGGEN
  phosphorylation of L1ICD by CKII in vitro (densitometry of the phospho-L1ICD band, 0 to 180 min) after preincubation with GST-14-3-3ζ against GST alone: ~3 fold
